Results published in patent publication US20120149889.

molecular target: CCHF Peptide 1 (envelope surface peptide) (Crimean-Congo hemorrhagic fever virus) (UniProt Q8JSZ3); assay: SPR; conditions: not given
Chain of UniProt Q8JSZ3 (Q8JSZ3 whole entry, looked up): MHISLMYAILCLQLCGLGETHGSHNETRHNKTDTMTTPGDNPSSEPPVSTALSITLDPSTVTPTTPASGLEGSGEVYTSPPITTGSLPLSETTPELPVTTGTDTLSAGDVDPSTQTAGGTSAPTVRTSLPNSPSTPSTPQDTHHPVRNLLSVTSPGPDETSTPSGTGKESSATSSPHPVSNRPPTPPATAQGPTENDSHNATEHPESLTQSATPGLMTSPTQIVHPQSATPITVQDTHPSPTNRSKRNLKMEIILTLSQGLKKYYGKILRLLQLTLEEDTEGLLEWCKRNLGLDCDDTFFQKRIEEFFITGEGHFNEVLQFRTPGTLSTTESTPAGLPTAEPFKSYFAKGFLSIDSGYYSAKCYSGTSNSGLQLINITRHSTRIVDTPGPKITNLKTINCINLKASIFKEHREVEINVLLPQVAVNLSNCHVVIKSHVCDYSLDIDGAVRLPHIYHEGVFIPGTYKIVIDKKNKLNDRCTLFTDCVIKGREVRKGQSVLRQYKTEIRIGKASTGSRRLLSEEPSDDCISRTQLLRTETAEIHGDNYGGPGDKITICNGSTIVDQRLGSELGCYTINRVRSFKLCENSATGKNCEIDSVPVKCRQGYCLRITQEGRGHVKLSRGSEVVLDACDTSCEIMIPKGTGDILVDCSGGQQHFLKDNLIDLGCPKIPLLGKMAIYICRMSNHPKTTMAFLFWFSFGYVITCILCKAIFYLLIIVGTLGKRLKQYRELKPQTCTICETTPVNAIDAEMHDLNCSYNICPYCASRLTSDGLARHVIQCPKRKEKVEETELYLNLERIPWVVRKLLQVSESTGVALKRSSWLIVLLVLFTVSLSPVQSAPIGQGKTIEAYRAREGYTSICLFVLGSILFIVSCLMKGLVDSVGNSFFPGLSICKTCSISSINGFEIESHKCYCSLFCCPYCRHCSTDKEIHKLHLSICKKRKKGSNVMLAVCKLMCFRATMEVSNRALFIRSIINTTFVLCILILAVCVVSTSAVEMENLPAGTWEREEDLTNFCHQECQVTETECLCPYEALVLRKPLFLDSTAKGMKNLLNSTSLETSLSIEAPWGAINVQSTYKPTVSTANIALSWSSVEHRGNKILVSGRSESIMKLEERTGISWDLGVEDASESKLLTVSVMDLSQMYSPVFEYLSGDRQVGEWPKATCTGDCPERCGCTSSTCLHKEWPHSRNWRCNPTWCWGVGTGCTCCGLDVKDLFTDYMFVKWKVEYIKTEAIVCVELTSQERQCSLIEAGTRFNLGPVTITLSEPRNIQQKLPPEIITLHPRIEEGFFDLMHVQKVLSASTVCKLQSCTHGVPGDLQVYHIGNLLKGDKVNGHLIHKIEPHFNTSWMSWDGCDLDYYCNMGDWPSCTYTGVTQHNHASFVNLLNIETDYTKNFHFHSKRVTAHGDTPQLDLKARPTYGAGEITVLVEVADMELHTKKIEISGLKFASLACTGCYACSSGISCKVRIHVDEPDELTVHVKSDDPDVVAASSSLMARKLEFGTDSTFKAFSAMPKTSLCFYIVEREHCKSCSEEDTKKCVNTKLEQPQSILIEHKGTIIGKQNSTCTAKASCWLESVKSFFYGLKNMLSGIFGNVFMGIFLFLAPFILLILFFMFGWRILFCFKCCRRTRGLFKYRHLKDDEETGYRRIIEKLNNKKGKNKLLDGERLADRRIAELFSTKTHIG

Sequence | Kd
ATACGGGAGCCAACACCATGGTGACGGACCTTGAGAGCAAGACCGCTACGATTCAGAGCAGGTGTGACGGAT [C1-9F] | 8.13 pM

test system: TBEV target (not specified) (Tick-borne encephalitis virus); assay: ELONA; conditions: not given

Sequence | binding signal
ATCCGTCACACCTGCTCTTCCCCTAAACTTTTTTGACCTACCTGTATAATTGGCTGGTGTTGGCTCCCGTAT [TBEV-4R] | 2.12 A405
ATCCGTCACACCTGCTCTGCGTTGGAGTATCTTCCCCGGTGCACTCCGTTCGTGTGGTGTTGGCTCCCGTAT [TBEV-3R] | 1.91 A405
ATACGGGAGCCAACACCACCATGCCCCTTTAAGTGAATAGACTAGTGGCCGTTGAGAGCAGGTGTGACGGAT [TBEV-5F] | 2.06 A405
ATACGGGAGCCAACACCATTGACTTGGCCGTCTCTGACCCCTAGCACCCCTCGCAGAGCAGGTGTGACGGAT [TBEV-10F] | 1.95 A405
ATACGGGAGCCAACACCACACACAGAGCGCCATGGACTCAGTCAGATGTGATGTAGAGCAGGTGTGACGGAT [TBEV-8F] | 1.85 A405
ATCCGTCACACCTGCTCTGTACGTTACTCGCCGATACGGAAGGGCGGTGCCGAGTGGTGTTGGCTCCCGTAT [TBEV-1R] | 2.15 A405
ATCCGTCACACCTGCTCTGGGCCAACGGACGGGATCGCGAGGCTAAGACGTCTCTGGTGTTGGCTCCCGTAT [TBEV-6R] | 2.12 A405
ATACGGGAGCCAACACCATCCTCCCGCGACGTCTGGAGAACAGCCTCTACTTTAAGAGCAGGTGTGACGGAT [TBEV-7F] | 2.02 A405
ATACGGGAGCCAACACCACCGCAGGAGTCCATCAGGGGTTGGCAGTCAGCGCTCAGAGCAGGTGTGACGGAT [TBEV-2F] | 2.31 A405
ATCCGTCACACCTGCTCTTAAAGTAGAGGCTGTTCTCCAGACGTCGCGGGAGGATGGTGTTGGCTCCCGTAT [TBEV-7R] | 1.97 A405
ATCCGTCACACCTGCTCTGAGCGCTGACTGCCAACCCCTGATGGACTCCTGCGGTGGTGTTGGCTCCCGTAT [TBEV-2R] | 2.6 A405
ATACGGGAGCCAACACCACTCGGCACCGCCCTTCCGTATCGGCGAGTAACGTACAGAGCAGGTGTGACGGAT [TBEV-1F] | 1.94 A405
ATCCGTCACACCTGCTCTCAACGGCCACTAGTCTATTCACTTAAAGGGGCATGGTGGTGTTGGCTCCCGTAT [TBEV-5R] | 1.93 A405
ATCCGTCACACCTGCTCTGCGAGGGGTGCTAGGGGTCAGAGACGGCCAAGTCAATGGTGTTGGCTCCCGTAT [TBEV-10R] | 1.82 A405
ATACGGGAGCCAACACCAGCCAATTATACAGGTAGGTCAAAAAAGTTTAGGGGAAGAGCAGGTGTGACGGAT [TBEV-4F] | 1.88 A405
ATACGGGAGCCAACACCAGAGACGTCTTAGCCTCGCGATCCCGTCCGTTGGCCCAGAGCAGGTGTGACGGAT [TBEV-6F] | 2.07 A405
ATACGGGAGCCAACACCACACGAACGGAGTGCACCGGGGAAGATACTCCAACGCAGAGCAGGTGTGACGGAT [TBEV-3F] | 1.8 A405
ATCCGTCACACCTGCTCTACATCACATCTGACTGAGTCCATGGCGCTCTGTGTGTGGTGTTGGCTCCCGTAT [TBEV-8R] | 2.43 A405

test system: WNV envelope peptide (West Nile virus); assay: ELONA; conditions: not given

Sequence | binding signal
ATACGGGAGCCAACACCACCCCGTCGCCAAGCACTTGGCTGGGCTCTAACGGCCAGAGCAGGTGTGACGGAT [WNV 18F] | 2 A405
ATACGGGAGCCAACACCACCCGTGGCCTTCACCCAGCCAGGGGCCCCGTCTCTGAGAGCAGGTGTGACGGAT [WNV 20F] | 2.54 A405
ATCCGTCACACCTGCTCTCAGCGGCGGCGGGCCCGGGCGATGGAGGTCCTGACATGGTGTTGGCTCCCGTAT [WNV 16R] | 2.25 A405
ATACGGGAGCCAACACCATGTCAGGACCTCCATCGCCCGGGCCCGCCGCCGCTGAGAGCAGGTGTGACGGAT [WNV 16F] | 2.45 A405
ATACGGGAGCCAACACCACAGCTGATATCGGATGGTCCGGCAGAGCAGGTGTGACGGAT [WNV 19F] | 2.73 A405
ATCCGTCACACCTGCTCTCAGAGACGGGGCCCCTGGCTGGGTGAAGGCCACGGGTGGTGTTGGCTCCCGTAT [WNV 20R] | 2.47 A405
ATCCGTCACACCTGCTCTGCCGGACCATCCGATATCAGCTGTGGTGTTGGCTCCCGTAT [WNV 19R] | 2.18 A405

same assay, conditions: also positive in lateral flow (FIG. 9C)

Sequence | binding signal
ATCCGTCACACCTGCTCTGGCCGTTAGAGCCCAGCCAAGTGCTTGGCGACGGGGTGGTGTTGGCTCCCGTAT [WNV 18R] | 2.65 A405

test system: outer membrane proteins (OMPs) (Rickettsia belli); assay: ELONA; conditions: not given

Sequence | binding signal
ATACGGGAGCCAACACCATAACAAATAACCACCCTCAATGCTAGATAGTGGCTTAGAGCAGGTGTGACGGAT [R5-23F] | 2.93 A405
ATACGGGAGCCAACACCAGCACTGCAGTTAACATTTACGAAGAGGCTTTAATGCAGAGCAGGTGTGACGGAT [R5-39F] | 1.95 A405
ATCCGTCACACCTGCTCTAAATAGATCACGCATAATGGCATTAGTATTAGTGTTGGTGTTGGCTCCCGTAT [R5-21bR] | 1.89 A405

test system: outer membrane proteins (OMPs) (Rickettsia typhi); assay: ELONA; conditions: not given

Sequence | binding signal
ATACGGGAGCCAACACCACCAACGAATACTACCAGGCCTAGCACAATACACAACAGAGCAGGTGTGACGGAT [R1-27bF] | 2.62 A405
ATCCGTCACACCTGCTCTTGCTTATATTTAATTTTTTTCCCAAACTAGTAAGATTGGTGTTGGCTCCCGTAT [R1-21R] | 2.88 A405
ATCCGTCACACCTGCTCTACAGTTAGAGCTTGCCGTATGCCTTTGTTAACATAATGGTGTTGGCTCCCGTAT [R1-30R] | 2.85 A405

test system: outer membrane proteins (OMPs) (Rickettsia parkeri); assay: ELONA; conditions: not given

Sequence | binding signal
ATCCGTCACACCTGCTCTTTTCCTATGAATGGTAATCAATTAGAGTCTATATCTTGGTGTTGGCTCCCGTAT [R2-17R] | 2.05 A405
ATACGGGAGCCAACACCAGAAAATGAATACTTCCCAAGCTTGTCAAGCAAGTAAGAGCAGGTGTGACGGAT [R2-5F] | 1.95 A405
ATACGGGAGCCAACACCATAACGGTTCCCTTAATGCGCTACCCACACTATACAAGAGCAGGTGTGACGGAT [R2-14F] | 2.08 A405

test system: CCHF envelope peptides (individual peptide not specified) (Crimean-Congo hemorrhagic fever virus); assay: ELONA; conditions: not given

Sequence | binding signal
ATACGGGAGCCAACACCACAGCTGACAATAGAAGGATATCCTGGGTACCGATGCAGAGCAGGTGTGACGGAT [C3-4F] | 2.67 A405
ATCCGTCACACCTGCTCTGAATCGTAGCGGTCTTGCTCTCAAGGTCCGTCACCATGGTGTTGGCTCCCGTAT [C1-9R] | 1.56 A405
ATCCGTCACACCTGCTCTCCAAGGACACGTTACCGTATTGGCCCAACACTATGGTGTTGGCTCCCGTAT [C1-1/7R] | 2.05 A405
ATACGGGAGCCAACACCACAGACACCGAATGAGCAACACAACAACGGGACCCGTAGAGCAGGTGTGACGGAT [C2-8F] | 1.65 A405
ATCCGTCACACCTGCTCTCGGGACGCGAGCGGCCTGCGGGAACCAGGCGGGGGCTGGTGTTGGCTCCCGTAT [C3-6R] | 2.48 A405
ATCCGTCACACCTGCTCTGGGCAGCACTACCGGTGTCGTTGTGTTGGCATTTCTTGGTGTTGGCTCCCGTAT [C1-6R] | 1.95 A405
ATCCGTCACACCTGCTCTGCAAAGAGGTCGTAGTGCCGTGTCCGGTCGGATACCTGGTGTTGGCTCCCGTAT [C2-10R] | 1.66 A405
ATCCGTCACACCTGCTCTCCAAGGACACGTCACCGTATTGGCCCAACACTATGGTGTTGGCTCCCGTAT [C3-8R] | 1.48 A405
ATACGGGAGCCAACACCATAGTGTTGGGCCAATACGGTAACGTGTCCTTGGAGAGCAGGTGTGACGGAT [C1-1/7F] | 1.9 A405
ATCCGTCACACCTGCTCTATACCAACGGGGGACGGTCTGAGCTAGTGACGCCCGTGGTGTTGGCTCCCGTAT [C3-7R] | 1.5 A405
ATCCGTCACACCTGCTCTACGGCCCTGCACCACTTATTCTAGGCAGTGTTCTTCTGGTGTTGGCTCCCGTAT [C1-10R] | 1.62 A405
ATACGGGAGCCAACACCATGGTGACGGACCTTGAGAGCAAGACCGCTACGATTCAGAGCAGGTGTGACGGAT [C1-9F] | 2.24 A405
ATCCGTCACACCTGCTCTATGAGTCTATCCAGTTCTAAAAGTTCCGCTCTTTATTGGTGTTGGCTCCCGTAT [C1-1R] | 1.99 A405
ATACGGGAGCCAACACCAATGAGAGCAAAGATCCCAGGATACACTAATCCCTGTAGAGCAGGTGTGACGGAT [C1-3F] | 1.85 A405
ATCCGTCACACCTGCTCTGCATCGGTACCCAGGATATCCTTCTATTGTCAGCTGTGGTGTTGGCTCCCGTAT [C3-4R] | 2.47 A405

test system: outer membrane proteins (OMPs) (Rickettsia conorii); assay: ELONA; conditions: not given

Sequence | binding signal
ATACGGGAGCCAACACCAGCACAACTTAAGTGCAAGCAAATTCGGATTAACCAAAGAGCAGGTGTGACGGAT [R4-1F] | 1.99 A405
ATCCGTCACACCTGCTCTCCAGATTTGGTGTTATGCTCTTGTTTGGCTTGGACTTGGTGTTGGCTCCCGTAT [R4-14R] | 2.05 A405
ATCCGTCACACCTGCTCTTTGGTTAATCCGAATTTGCTTGCACTTAAGTTGTGCTGGTGTTGGCTCCCGTAT [R4-1R] | 2.12 A405

test system: outer membrane proteins (OMPs) (Rickettsia rickettsii); assay: ELONA; conditions: not given

Sequence | binding signal
ATCCGTCACACCTGCTCTACATCACATCTGACTGAGTCCATGGCGCTCTGTGTGTGGTGTTGGCTCCCGTAT [R3-39R] | 2.05 A405
ATACGGGAGCCAACACCACACACAGAGCGCCATGGACTCAGTCAGATGTGATGTAGAGCAGGTGTGACGGAT [R3-39F] | 2.12 A405
ATCCGTCACACCTGCTCTTTCACTAAGCTGACTTTTCACCTCGTCTTCGTGCCGTGGTGTTGGCTCCCGTAT [R3-40R] | 1.99 A405
